{"source": "paper PMC5789848", "about": "“HTLV-1 Tax plugs and freezes UPF1 helicase leading to nonsense-mediated mRNA decay inhibition” (Nature Communications, 2018)", "conditions_in_all_cases": "both partners purified", "key": {"[1]": {"target": "T1, UPF1-CH-HD (CH and HD domains of UPF1; aa 115-914) (human, UniProt Q92900-2 115-914)", "T1 construct": "UPF1, human, CH and helicase domains, aa 115-914; numbers count on: the 1118 aa form; Tags 'and/or' as printed; source: E. coli BL21 DE3, purified (nickel and calmodulin resin)", "T1 sequence (looked up)": "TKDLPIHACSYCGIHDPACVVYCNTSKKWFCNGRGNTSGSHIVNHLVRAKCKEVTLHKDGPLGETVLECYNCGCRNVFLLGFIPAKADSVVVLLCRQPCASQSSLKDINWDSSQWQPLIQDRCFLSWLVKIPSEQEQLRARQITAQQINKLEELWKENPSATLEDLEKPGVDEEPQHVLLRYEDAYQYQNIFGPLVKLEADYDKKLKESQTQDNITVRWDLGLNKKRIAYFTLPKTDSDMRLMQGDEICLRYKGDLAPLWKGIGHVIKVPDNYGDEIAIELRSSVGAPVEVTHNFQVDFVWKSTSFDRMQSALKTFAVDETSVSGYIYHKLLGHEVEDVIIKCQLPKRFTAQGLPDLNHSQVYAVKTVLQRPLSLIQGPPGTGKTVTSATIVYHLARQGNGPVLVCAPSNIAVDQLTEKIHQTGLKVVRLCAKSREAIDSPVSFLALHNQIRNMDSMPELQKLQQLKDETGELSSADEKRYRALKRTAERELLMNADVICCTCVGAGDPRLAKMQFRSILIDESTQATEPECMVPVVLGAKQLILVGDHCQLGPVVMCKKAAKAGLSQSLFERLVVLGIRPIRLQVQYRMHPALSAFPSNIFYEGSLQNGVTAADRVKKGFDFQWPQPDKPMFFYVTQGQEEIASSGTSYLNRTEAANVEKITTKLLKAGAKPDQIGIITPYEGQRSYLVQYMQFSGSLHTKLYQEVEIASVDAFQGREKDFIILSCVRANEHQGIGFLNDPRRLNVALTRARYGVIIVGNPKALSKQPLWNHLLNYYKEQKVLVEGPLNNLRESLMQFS", "assay": "pull-down; GST-Tax as bait on GST resin, purified UPF1 proteins as prey; extensive washes with 0.3 M NaCl (methods: binding buffer with 200 mM NaCl); SDS-PAGE, coomassie staining"}, "[2]": {"target": "T2, UPF1 helicase core domain (UPF1-HD; aa 295-914), C-terminal hexahistidine (human, UniProt Q92900-2 295-914)", "T2 construct": "UPF1, human, helicase core domain (HD), aa 295-914; numbers count on: the 1118 aa form; for UPF1-HD only the C-terminal hexahistidine is named; also called UPF1-HD-His; HisUPF1-HD; source: E. coli BL21 DE3, purified (Ni-NTA); also in E. coli lysate (co-lysis with Tax-expressing bacteria); not shown: His6, C-terminal, kept", "T2 sequence (looked up)": "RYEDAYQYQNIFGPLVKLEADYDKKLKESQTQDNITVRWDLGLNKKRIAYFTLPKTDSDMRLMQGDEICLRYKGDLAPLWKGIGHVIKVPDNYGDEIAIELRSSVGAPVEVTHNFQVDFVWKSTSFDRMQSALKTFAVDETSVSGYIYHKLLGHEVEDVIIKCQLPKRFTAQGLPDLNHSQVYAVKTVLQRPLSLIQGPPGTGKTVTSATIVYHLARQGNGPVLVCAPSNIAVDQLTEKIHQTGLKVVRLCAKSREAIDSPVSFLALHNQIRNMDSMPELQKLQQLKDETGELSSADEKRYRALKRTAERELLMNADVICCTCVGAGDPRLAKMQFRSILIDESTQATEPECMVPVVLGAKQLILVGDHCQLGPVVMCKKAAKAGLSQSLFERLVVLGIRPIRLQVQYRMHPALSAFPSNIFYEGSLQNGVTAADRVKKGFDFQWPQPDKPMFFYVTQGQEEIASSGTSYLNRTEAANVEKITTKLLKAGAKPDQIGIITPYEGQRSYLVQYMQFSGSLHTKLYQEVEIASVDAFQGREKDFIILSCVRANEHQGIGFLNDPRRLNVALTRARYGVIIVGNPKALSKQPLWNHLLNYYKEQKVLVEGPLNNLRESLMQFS", "assay": "pull-down; GST-Tax as bait on GST resin, purified UPF1 proteins as prey; extensive washes with 0.3 M NaCl (methods: binding buffer with 200 mM NaCl); SDS-PAGE, coomassie staining"}, "[3]": {"target": "T3, UPF1-HD-SQ (HD and SQ domains of UPF1; aa 295-1118) (human, UniProt Q92900-2 295-1118)", "T3 construct": "UPF1, human, helicase and SQ domains, aa 295-1118; numbers count on: the 1118 aa form; Tags 'and/or' as printed; source: E. coli BL21 DE3, purified (nickel and calmodulin resin)", "T3 sequence (looked up)": "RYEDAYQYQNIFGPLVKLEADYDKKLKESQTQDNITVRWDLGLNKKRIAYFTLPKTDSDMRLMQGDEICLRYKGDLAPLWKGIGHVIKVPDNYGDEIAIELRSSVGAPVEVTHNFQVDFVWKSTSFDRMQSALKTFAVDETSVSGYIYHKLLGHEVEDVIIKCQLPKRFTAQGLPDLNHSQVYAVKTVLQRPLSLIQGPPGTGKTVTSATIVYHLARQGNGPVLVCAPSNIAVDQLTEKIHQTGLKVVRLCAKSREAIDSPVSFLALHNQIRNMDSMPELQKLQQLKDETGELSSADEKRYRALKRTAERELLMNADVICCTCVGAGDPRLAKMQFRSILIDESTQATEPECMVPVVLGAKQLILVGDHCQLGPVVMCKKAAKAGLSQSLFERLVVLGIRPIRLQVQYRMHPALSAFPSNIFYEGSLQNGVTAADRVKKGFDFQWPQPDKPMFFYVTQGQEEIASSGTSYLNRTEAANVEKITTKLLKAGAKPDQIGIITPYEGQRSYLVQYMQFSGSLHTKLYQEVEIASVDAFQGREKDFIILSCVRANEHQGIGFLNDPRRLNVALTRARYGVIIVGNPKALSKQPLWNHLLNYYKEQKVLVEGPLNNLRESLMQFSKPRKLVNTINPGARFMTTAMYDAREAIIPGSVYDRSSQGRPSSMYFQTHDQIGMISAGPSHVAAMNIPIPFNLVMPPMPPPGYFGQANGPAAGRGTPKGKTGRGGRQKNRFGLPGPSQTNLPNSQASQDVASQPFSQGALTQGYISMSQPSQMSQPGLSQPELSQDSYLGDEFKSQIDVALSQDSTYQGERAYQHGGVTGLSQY", "assay": "pull-down; GST-Tax as bait on GST resin, purified UPF1 proteins as prey; extensive washes with 0.3 M NaCl (methods: binding buffer with 200 mM NaCl); SDS-PAGE, coomassie staining"}, "[4]": {"target": "T4, UPF1 full-length (UPF1-FL; aa 1-1118) (human, UniProt Q92900-2 1-1118)", "T4 construct": "Up-Frameshift Suppressor 1 Homolog (UPF1), human, aa 1-1118; printed length 1118 aa; source: E. coli BL21 DE3, purified (nickel and calmodulin resin)", "T4 sequence (looked up)": "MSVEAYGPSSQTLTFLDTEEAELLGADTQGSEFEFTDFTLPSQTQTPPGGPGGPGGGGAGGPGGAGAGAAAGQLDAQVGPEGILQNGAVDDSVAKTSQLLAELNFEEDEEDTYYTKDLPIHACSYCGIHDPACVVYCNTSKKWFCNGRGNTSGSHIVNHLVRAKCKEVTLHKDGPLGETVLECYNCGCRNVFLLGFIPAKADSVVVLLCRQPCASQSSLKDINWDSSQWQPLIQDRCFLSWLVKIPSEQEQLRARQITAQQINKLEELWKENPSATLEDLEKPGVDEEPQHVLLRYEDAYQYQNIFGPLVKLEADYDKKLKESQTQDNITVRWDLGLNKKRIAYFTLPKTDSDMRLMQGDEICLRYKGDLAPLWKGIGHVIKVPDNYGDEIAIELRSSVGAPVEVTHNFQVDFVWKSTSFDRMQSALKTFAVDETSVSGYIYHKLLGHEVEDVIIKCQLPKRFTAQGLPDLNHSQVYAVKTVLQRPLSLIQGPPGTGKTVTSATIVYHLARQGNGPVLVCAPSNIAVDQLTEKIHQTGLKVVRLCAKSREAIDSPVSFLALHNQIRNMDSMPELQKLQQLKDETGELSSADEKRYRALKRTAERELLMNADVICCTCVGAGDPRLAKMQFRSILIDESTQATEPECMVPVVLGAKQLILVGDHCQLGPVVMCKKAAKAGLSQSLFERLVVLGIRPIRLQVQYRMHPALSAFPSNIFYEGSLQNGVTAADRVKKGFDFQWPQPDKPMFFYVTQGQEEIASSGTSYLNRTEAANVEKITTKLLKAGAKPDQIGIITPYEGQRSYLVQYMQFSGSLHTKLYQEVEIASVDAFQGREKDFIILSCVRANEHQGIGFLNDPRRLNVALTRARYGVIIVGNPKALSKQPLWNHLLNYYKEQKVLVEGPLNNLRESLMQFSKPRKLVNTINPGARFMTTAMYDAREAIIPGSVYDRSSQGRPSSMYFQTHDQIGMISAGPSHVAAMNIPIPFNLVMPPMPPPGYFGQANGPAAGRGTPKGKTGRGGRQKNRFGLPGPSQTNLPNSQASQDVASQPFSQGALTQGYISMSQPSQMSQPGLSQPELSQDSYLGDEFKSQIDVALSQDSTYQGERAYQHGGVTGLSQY", "assay": "pull-down; GST-Tax as bait on GST resin, purified UPF1 proteins as prey; extensive washes with 0.3 M NaCl (methods: binding buffer with 200 mM NaCl); SDS-PAGE, coomassie staining"}, "[5]": {"target": "T5, GST-Tax_(CACA) (HTLV-1 Tax with C23 and C29 changed to alanine, N-terminal GST fusion) (HTLV-1, UniProt P03409 1-353, C23A | C29A)", "T5 construct": "Tax protein of HTLV-1, 353 amino acids, double mutant of the zinc finger region; plasmid pGEX2T-Tax_(CACA) made from pGEX2T-TaxWT; also called GST-tagged Tax_(CACA); source: E. coli BL21-DE3, purified (glutathione magnetic beads); also in E. coli lysate (co-lysis with HisUPF1-HD bacteria); not shown: GST, N-terminal, kept", "assay": "BLI; BLItz; GST-Tax covalently bound to an AR2G sensor; UPF1 His-HD proteins in running buffer (300 mM NaCl, 20 mM phosphate, 0.02% Tween 20, 0.1% albumin); 250 s association, 60 s dissociation"}}}
{"binder": "GST-Tax (HTLV-1 Tax, wild type, N-terminal glutathione S-transferase fusion) (natural protein, Tax protein of human T-cell lymphotropic virus type I (HTLV-1); also called TaxWT; HTLV-1 GST-Tax; source: E. coli BL21-DE3, purified (glutathione magnetic beads); also in E. coli lysate (co-lysis with HisUPF1-HD bacteria); not shown: GST, N-terminal, kept) not shown", "values": [{"measurement": "binding result", "setting": "[1]", "result": "binds"}, {"measurement": "binding result", "setting": "[2]", "result": "binds"}, {"measurement": "binding result", "setting": "[3]", "result": "binds"}, {"measurement": "binding result", "setting": "[4]", "result": "binds"}]}
{"binder": "UPF1-HD_(DE636AA), histidine-tagged (domain or fragment, numbers count on: the 1118 aa form; also called UPF1-HD_(DE633AA); UPF1-HD_(DEAA); source: E. coli BL21 DE3, purified (Ni-NTA)) RYEDAYQYQNIFGPLVKLEADYDKKLKESQTQDNITVRWDLGLNKKRIAYFTLPKTDSDMRLMQGDEICLRYKGDLAPLWKGIGHVIKVPDNYGDEIAIELRSSVGAPVEVTHNFQVDFVWKSTSFDRMQSALKTFAVDETSVSGYIYHKLLGHEVEDVIIKCQLPKRFTAQGLPDLNHSQVYAVKTVLQRPLSLIQGPPGTGKTVTSATIVYHLARQGNGPVLVCAPSNIAVDQLTEKIHQTGLKVVRLCAKSREAIDSPVSFLALHNQIRNMDSMPELQKLQQLKDETGELSSADEKRYRALKRTAERELLMNADVICCTCVGAGDPRLAKMQFRSILIAASTQATEPECMVPVVLGAKQLILVGDHCQLGPVVMCKKAAKAGLSQSLFERLVVLGIRPIRLQVQYRMHPALSAFPSNIFYEGSLQNGVTAADRVKKGFDFQWPQPDKPMFFYVTQGQEEIASSGTSYLNRTEAANVEKITTKLLKAGAKPDQIGIITPYEGQRSYLVQYMQFSGSLHTKLYQEVEIASVDAFQGREKDFIILSCVRANEHQGIGFLNDPRRLNVALTRARYGVIIVGNPKALSKQPLWNHLLNYYKEQKVLVEGPLNNLRESLMQFS", "values": [{"measurement": "fold change of binding against WT", "setting": "[5]", "result": "~1.8", "unit": "times"}]}
{"binder": "UPF1-HD_(R843S), histidine-tagged (domain or fragment, UPF1, human, helicase core domain aa 295-914 (as UPF1-HD) with R843S; numbers count on: the 1118 aa form; source: E. coli, purified (as the other His-tagged UPF1 proteins)) RYEDAYQYQNIFGPLVKLEADYDKKLKESQTQDNITVRWDLGLNKKRIAYFTLPKTDSDMRLMQGDEICLRYKGDLAPLWKGIGHVIKVPDNYGDEIAIELRSSVGAPVEVTHNFQVDFVWKSTSFDRMQSALKTFAVDETSVSGYIYHKLLGHEVEDVIIKCQLPKRFTAQGLPDLNHSQVYAVKTVLQRPLSLIQGPPGTGKTVTSATIVYHLARQGNGPVLVCAPSNIAVDQLTEKIHQTGLKVVRLCAKSREAIDSPVSFLALHNQIRNMDSMPELQKLQQLKDETGELSSADEKRYRALKRTAERELLMNADVICCTCVGAGDPRLAKMQFRSILIDESTQATEPECMVPVVLGAKQLILVGDHCQLGPVVMCKKAAKAGLSQSLFERLVVLGIRPIRLQVQYRMHPALSAFPSNIFYEGSLQNGVTAADRVKKGFDFQWPQPDKPMFFYVTQGQEEIASSGTSYLNRTEAANVEKITTKLLKAGAKPDQIGIITPYEGQRSYLVQYMQFSGSLHTKLYQEVEIASVDAFQGREKDFIILSCVSANEHQGIGFLNDPRRLNVALTRARYGVIIVGNPKALSKQPLWNHLLNYYKEQKVLVEGPLNNLRESLMQFS", "values": [{"measurement": "fold loss of affinity against WT", "setting": "[5]", "result": 4, "unit": "times"}]}
